This is an account of results in FireProtDB (doi:10.1021/ja068849o).

To fix the notation:
B1: Outer membrane protein A, P0A910 (parent)
chain: MKKTAIAIAVALAGFATVAQAAPKDNTWYTGAKLGWSQYHDTGFINNNGPTHENQLGAGAFGGYQVNPYVGFEMGYDWLGRMPYKGSVENGAYKAQGVQLTAKLGYPITDDLDIYTRLGGMVWRADTKSNVYGKNHDTGVSPVFAGGVEYAITPEIATRLEYQWTNNIGDAHTIGTRPDNGMLSLGVSYRFGQGEAAPVVAPAPAPAPEVQTKHFTLKSDVLFNFNKATLKPEGQAALDQLYSQLSNLDPKDGSVVVLGYTDRIGSDAYNQGLSERRAQSVVDYLISKGIPADKISARGMGESNPVTGNTCDNVKQRAALIDCLAPDRRVEIEVKGIKDVVTQPQA

In the series the parent is B1. Particulars: Escherichia coli (strain K12); pH 9.2; 37 °C; Urea; Fluorescence; Glycine 10 mM; reversible: Yes; structure 1QJP; whole UniProt chain shown.

Take Y76A W78A: the “ddG of mutation (higher = less stable)” value came out at 17.6 kJ/mol, the denaturant m value was determined as 2.4 kcal/mol/M, the “denaturant midpoint (higher = more stable)” value (from here on “denaturant midpoint”) was 2.1 M and the unfolding free energy is 21.3 kJ/mol.
On to F144A Y162A W164A, for which the “ddG of mutation (higher = less stable)” value stood at 28.5 kJ/mol, the denaturant m value turned out to be 2 kcal/mol/M, the “denaturant midpoint” value is 1.2 M and the unfolding free energy came to 10.5 kJ/mol.
In the case of W28A Y64A, the “ddG of mutation (higher = less stable)” value is 26.8 kJ/mol, the denaturant m value amounted to 1.9 kcal/mol/M, the “denaturant midpoint” value was 1.6 M and the unfolding free energy was determined as 12.1 kJ/mol.
For W28A, in that order: 15.1 kJ/mol, 1.9 kcal/mol/M, 3 M and 23.8 kJ/mol.
The corresponding values for F191A are 10 kJ/mol, 2.3 kcal/mol/M, 3 M and 28.9 kJ/mol.
Turning to W78A, the “ddG of mutation (higher = less stable)” value turned out to be 8.37 kJ/mol, the denaturant m value turned out to be 2.4 kcal/mol/M, the “denaturant midpoint” value is 3.1 M and the unfolding free energy worked out at 30.5 kJ/mol.
F144A W164A: the “ddG of mutation (higher = less stable)” value amounted to 16.3 kJ/mol, the denaturant m value stood at 2.3 kcal/mol/M, the “denaturant midpoint” value turned out to be 2.4 M and the unfolding free energy was 22.6 kJ/mol.
For W164A, in that order: 13 kJ/mol, 2.2 kcal/mol/M, 2.8 M and 25.9 kJ/mol.
For Y76A, in that order: 10.5 kJ/mol, 2.2 kcal/mol/M, 3.1 M and 28.5 kJ/mol.
As for F144A Y162A, the “ddG of mutation (higher = less stable)” value amounted to 22.2 kJ/mol, the denaturant m value was 2.1 kcal/mol/M, the “denaturant midpoint” value was 1.9 M and the unfolding free energy was 16.7 kJ/mol.
Take F72A: the “ddG of mutation (higher = less stable)” value was found to be 5.02 kJ/mol, the denaturant m value amounted to 2.3 kcal/mol/M, the “denaturant midpoint” value is 3.5 M and the unfolding free energy was determined as 33.9 kJ/mol.
Turning to Y189A, the “ddG of mutation (higher = less stable)” value turned out to be 0.837 kJ/mol, the denaturant m value worked out at 3.1 kcal/mol/M, the “denaturant midpoint” value is 2.9 M and the unfolding free energy was 38.1 kJ/mol.
For Y64A, in that order: 15.9 kJ/mol, 2.2 kcal/mol/M, 2.6 M and 23 kJ/mol.
With W36A, the “ddG of mutation (higher = less stable)” value was found to be 8.37 kJ/mol, the denaturant m value came to 2.4 kcal/mol/M, the “denaturant midpoint” value is 3.1 M and the unfolding free energy turned out to be 30.5 kJ/mol.
For Y162A W164A, the “ddG of mutation (higher = less stable)” value stood at 23.8 kJ/mol, the denaturant m value came to 2.2 kcal/mol/M, the “denaturant midpoint” value stood at 1.6 M and the unfolding free energy was 15.1 kJ/mol.
For Y189A F191A, the “ddG of mutation (higher = less stable)” value was 5.02 kJ/mol, the denaturant m value was determined as 3.1 kcal/mol/M, the “denaturant midpoint” value worked out at 2.6 M and the unfolding free energy stood at 33.9 kJ/mol.
The corresponding values for Y150A are 11.3 kJ/mol, 2.4 kcal/mol/M, 2.8 M and 27.6 kJ/mol.
